Variants at the floor of the assay were thinned out.

The results in this text go back to the RNAGym collection of RNA variant scans (doi:10.1073/pnas.2313332121).

The chains are these.
B1: TPR 5TU (parent)
chain: GGAUCUUCUCGAUCUAACAAAAAAGACAAAUCUGCCACAAAGCUUGAGAGCAUCUUCGGAUGCAGAGGCGGCAGCCUUCGGUGGCGCGAUAGCGCCAACGUUCUCAACUAUGACACGCAAAACGCGUGCUCCGUUGAAUGGAGUUUAUCAUG

In this data set the parent is B1. The experiment in a line: polymerase ribozyme fitness, log enrichment relative to wild type (log ratio); higher = more active; in vitro selection for triplet polymerase activity. The essentials: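 Genotype fitness is the logarithm of its enrichment divided by wild-type enrichment, using inverse-variance-weighted averages of replicates. That logarithm is base 2. Enrichment was measured by Illumina sequencing of input and output libraries from one triplicate in vitro selection round, with frozen incubation at −7 °C, on PCR-built, transcribed mutant libraries of each subunit of a heterodimeric triplet polymerase ribozyme, retaining genotypes with ≥10 input reads and ≥1 read per output.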
For the variant GGAUCUUCUCGAUCUAACAAAAAAGACAAAUCUGCCACAAAGCUUGAGAGCAUCUUCGGAUGCAGAGGCGGCAGCCUUCGGUGGCGCGAUAGCGCUAACGUUCUCAACUAUGACACGCAAAACGCGUGCUCCGUUGAAUGGAGUAUAUCUUG [C96U U145A A150U], the “polymerase ribozyme fitness (log ratio)” value stood at 0.912.

GGAUCUUCUCGAUCUAACAAAAAAGACAAAUCUGCCACAAAGCUUGAGAGCAUCUUCGGAUGCAGAGGCGGCAGCCUUCGGUGGCGCGAUAGCGCUAACGUUCUCAACUAUGACACGCAAAACGCGUGCUGCGUUGAAUGGAGUUUAUCAUG [C96U C131G]: the “polymerase ribozyme fitness (log ratio)” value is -2.66.

For GGAUCUUCUCGAUCUAACAAAAAAGACAAAUCUGCCACAAAGCUUGAGAGCAUCUUCGGAUGCAGAGGCGGCAGCCUUCGGUGGCGCGAUAGCGCUAACGUUCUCAACUAUGACACGCAAAACGCGUGCUUCGUUGAAUGGAGUUUAUCAUG [C96U C131U], the “polymerase ribozyme fitness (log ratio)” value was determined as 0.576.

Take GGAUCUUCUCGAUCUAACAAAAAAGACAAAUCUGCCACAAAGCUUGAGAGCAUCUUCGGAUGCAGAGGCGGCAGCCUUCGGUGGCGCGAUAGCGCUAACGUUUUCAACUAUGACACGCAAAACGCGUGCUCCGUUGAAUGGAGUUUAUCAUG [C96U C103U]: the “polymerase ribozyme fitness (log ratio)” value is -1.25.

For the variant GGAUCUUCUCGAUCUAACAAAAAAGACAAAUCUGCCACAAAGCUUGAGAGCAUCUUCGGAUGCAGAGGCGGCAGCCUUCGGUGGCGCGAUAGCGCUAACGUUCUCAACUAUGACACGCAAAACGCGUGCUCCGUUGAAUGGACUUUAUCAUG [C96U G143C], the “polymerase ribozyme fitness (log ratio)” value was -3.12.

For GGAUCUUCUCGAUCUAACAAAAAAGACAAAUCUGCCACAAAGCUUGAGAGCAUCUUCGGAUGCAGAGGCGGCAGCCUUCGGUGGCGCGAUAGCGCUAACGUUCUCAACUAUGACACGCAAAACGCGUGCUCCGUUGAAUGGAAUUUAUCAUG [C96U G143A], the “polymerase ribozyme fitness (log ratio)” value is -0.236.

GGAUCUUCUCGAUCUAACAAAAAAGACAAAUCUGCCACAAAGCUUGAGAGCAUCUUCGGAUGCAGAGGCGGCAGCCUUCGGUGGCGCGAUAGCGCUAACGUUCUCAACCAUGACACGCAAAACGCGUGCUCCGUUGAAUGGAGUUUAUCAUG [C96U U109C]: the “polymerase ribozyme fitness (log ratio)” value is -3.67.

For the variant GGAUCUUCUCGAUCUAACAAAAAAGACAAAUCUGCCACAAAGCUUGAGAGCAUCUUCGGAUGCAGAGGCGGCAGCCUUCGGUGGCGCGAUAGCGCCGACGUUCUCAACUAUGACACGCAAAACGCGUGCUCCGUUGAAUGGAGUUUAUCCUG [A97G A150C], the “polymerase ribozyme fitness (log ratio)” value was -2.96.

For GGAUCUUCUCGAUCUAACAAAAAAGACAAAUCUGCCACAAAGCUUGAGAGCAUCUUCGGAUGCAGAGGCGGCAGCCUUCGGUGGCGCGAUAGCGCCGACGUUCUCAACUAUGACACGCAAAACGCGUGCUCCGUUGAAUGGAGUUUAUCGUG [A97G A150G], the “polymerase ribozyme fitness (log ratio)” value was -2.82.

Consider GGAUCUUCUCGAUCUAACAAAAAAGACAAAUCUGCCACAAAGCUUGAGAGCAUCUUCGGAUGCAGAGGCGGCAGCCUUCGGUGGCGCGAUAGCGCUAACGUUCUCAACUAUGACACGCAAAACGCGUGCUCCGUUGAAAGGAGUUUAUCAUG [C96U U139A], for which the “polymerase ribozyme fitness (log ratio)” value was -3.94.

As for GGAUCUUCUCGAUCUAACAAAAAAGACAAAUCUGCCACAAAGCUUGAGAGCAUCUUCGGAUGCAGAGGCGGCAGCCUUCGGUGGCGCGAUAGCGCCCUCGUUCUCAACUAGGACACGCAAAACGCGUGCUCCGUUGAAUGGAGUUUAUCAUG [A97C A98U U111G], the “polymerase ribozyme fitness (log ratio)” value was -3.78.

GGAUCUUCUCGAUCUAACAAAAAAGACAAAUCUGCCACAAAGCUUGAGAGCAUCUUCGGAUGCAGAGGCGGCAGCCUUCGGUGGCGCGAUAGCGCUAACGUUCUCAACUAUGACACGCAAAACGCGUGCUCCAUUGAAUGGAGUUUAUCAUG [C96U G133A]: the “polymerase ribozyme fitness (log ratio)” value is -3.92.

As for GGAUCUUCUCGAUCUAACAAAAAAGACAAAUCUGCCACAAAGCUUGAGAGCAUCUUCGGAUGCAGAGGCGGCAGCCUUCGGUGGCGCGAUAGCGCUAACGUUCUAAACUAUGACAGGCAAAACGCGUGCUCCGUUGAAUGGAGUUUAUCAUG [C96U C105A C116G], the “polymerase ribozyme fitness (log ratio)” value is -1.79.

In the case of GGAUCUUCUCGAUCUAACAAAAAAGACAAAUCUGCCACAAAGCUUGAGAGCAUCUUCGGAUGCAGAGGCGGCAGCCUUCGGUGGCGCGAUAGCGCUAACGGUCUCAACUAUGACACGCAAAACCCGUGCUCCGUUGAAUGGAGUUUAUCAUG [C96U U101G G124C], the “polymerase ribozyme fitness (log ratio)” value was -0.75.

With GGAUCUUCUCGAUCUAACAAAAAAGACAAAUCUGCCACAAAGCUUGAGAGCAUCUUCGGAUGCAGAGGCGGCAGCCUUCGGUGGCGCGAUAGCGCUAACGUUCUCAACUAUGACACGCAAAACGCGUGCUCCGUUGAAUGGAGGUUAUCAUG [C96U U144G], the “polymerase ribozyme fitness (log ratio)” value is -0.238.

For GGAUCUUCUCGAUCUAACAAAAAAGACAAAUCUGCCACAAAGCUUGAGAGCAUCUUCGGAUGCAGAGGCGGCAGCCUUCGGUGGCGCGAUAGCGCUAACUUUCUCAACUAUGACACGCAAAACGCGUGCUCCGUUGAAUGGAGUUUAUCAUG [C96U G100U], the “polymerase ribozyme fitness (log ratio)” value is -3.13.

Turning to GGAUCUUCUCGAUCUAACAAAAAAGACAAAUCUGCCACAAAGCUUGAGAGCAUCUUCGGAUGCAGAGGCGGCAGCCUUCGGUGGCGCGAUAGCGCUAACGUUCUCAACUAUGACACGCAAAACGCAUGCUCCGUUGAAUGGAGUUUAUCAUG [C96U G126A], the “polymerase ribozyme fitness (log ratio)” value stood at 0.845.

In the case of GGAUCUUCUCGAUCUAACAAAAAAGACAAAUCUGCCACAAAGCUUGAGAGCAUCUUCGGAUGCAGAGGCGGCAGCCUUCGGUGGCGCGAUAGCGCUAACGUUCUUAACUAUGACACGCAAAACGCGUGCUCCGUUGAAUGGAGUUUAUCAUG [C96U C105U], the “polymerase ribozyme fitness (log ratio)” value was 0.67.

Regarding GGAUCUUCUCGAUCUAACAAAAAAGACAAAUCUGCCACAAAGCUUGAGAGCAUCUUCGGAUGCAGAGGCGGCAGCCUUCGGUGGCGCGAUAGCGCUAACGUUCUAAACUAUGACACGCAAAACGCGUGCUCCGUUGAAUGGAGUUUAUCAUG [C96U C105A], the “polymerase ribozyme fitness (log ratio)” value is -0.493.
